Assay results taken from publication PMC9897471.
Where two headings read alike, the source gives them in different places.

Legend:
GST-BRCA1 BRCT WT [1] = biological target: T1, GST-BRCA1 BRCT WT (UniProt P38398 1582-1863); test: EMSA
GST-BRCA1 BRCT WT [2] = biological target: T1, GST-BRCA1 BRCT WT; test: EMSA; remark: listed apart in the source

T1 sequence (P38398 1582-1863): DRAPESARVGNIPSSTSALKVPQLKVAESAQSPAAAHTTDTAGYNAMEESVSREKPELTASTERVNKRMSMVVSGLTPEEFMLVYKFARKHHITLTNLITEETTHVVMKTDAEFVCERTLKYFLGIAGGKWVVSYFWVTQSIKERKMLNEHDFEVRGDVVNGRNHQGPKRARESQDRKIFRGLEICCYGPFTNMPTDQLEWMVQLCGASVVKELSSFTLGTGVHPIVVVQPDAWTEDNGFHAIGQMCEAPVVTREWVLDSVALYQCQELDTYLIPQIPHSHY

B1: non-rRNA bottom ssRNA (ssRNA)
RNA: AUCCCAGCACCAGAUUCAGCAAUUAAGCUCUAAGCCAUGAAUUCAAAUGACCUCUUAUCA
binding result (GST-BRCA1 BRCT WT [1]): binds

B2: non-rRNA dsRNA (bottom/top) (dsRNA)
RNA 1: AUCCCAGCACCAGAUUCAGCAAUUAAGCUCUAAGCCAUGAAUUCAAAUGACCUCUUAUCA
RNA 2: UGAUAAGAGGUCAUUUGAAUUCAUGGCUUAGAGCUUAAUUGCUGAAUCUGGUGCUGGGAU
binding result (GST-BRCA1 BRCT WT [1]): no binding

B3: non-rDNA bottom ssDNA (ssDNA)
DNA: ATCCCAGCACCAGATTCAGCAATTAAGCTCTAAGCCATGAATTCAAATGACCTCTTATCA
binding result (GST-BRCA1 BRCT WT [2]): binds
